Results reported in PMC7946963, “Phosphorylation regulates the binding of autophagy receptors to FIP200 Claw domain for selective autophagy initiation” (Nature Communications, 2021).

Legend:
Assay in all cases: fluorescence polarisation titration
Settings in all cases: reference: unphosphorylated CCPG1 FIR2 peptide; sites S104
GABARAPL2 = GABARAPL2 (UniProt P60520)
[1] = target: FIP200 (RB1CC1) Claw domain, 1490-1594 (UniProt Q8TDY2)
GABARAPL1 = GABARAPL1 (UniProt Q9H0R8)
LC3B = LC3B (UniProt Q9GZQ8)
LC3A = LC3A (UniProt Q9H492)
LC3C = LC3C (UniProt Q9BXW4)

binding against the reference (GABARAPL2): stronger
binding against the reference [1]: stronger
binding against the reference (GABARAPL1): stronger
binding against the reference (LC3B): stronger
binding against the reference (LC3A): stronger
binding against the reference (LC3C): stronger
Substance: CCPG1 FIR2, 99-113 (from UniProt Q9ULG6) pS104 CCPG1 FIR2 peptide
